Results published in patent publication US20210261648A1 (published 2021).

Key:
[1] = target: T1, FcγRIa extracellular domain with C-terminal His tag (human, UniProt P12314 16-292); experiment: SPR, captured antibody, FcgR analyte
T1 construct: also called FcgRIa
Description: (§1) Relative binding activities were calculated for the results of analyzing interactions with the respective FcγRs according to the following method.

[2] = target: T2, FcγRIIb extracellular domain with C-terminal His tag (human, UniProt P31994 43-217); experiment: SPR, captured antibody, FcgR analyte
T2 construct: extracellular domain; also called FcgRIIb
T2 sequence (looked up): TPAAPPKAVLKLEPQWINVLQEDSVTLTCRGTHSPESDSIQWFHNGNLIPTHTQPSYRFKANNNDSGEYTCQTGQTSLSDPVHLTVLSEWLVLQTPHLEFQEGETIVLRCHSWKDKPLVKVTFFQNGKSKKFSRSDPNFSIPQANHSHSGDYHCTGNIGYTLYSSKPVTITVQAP
Description: as §1

T1 sequence (P12314 16-292): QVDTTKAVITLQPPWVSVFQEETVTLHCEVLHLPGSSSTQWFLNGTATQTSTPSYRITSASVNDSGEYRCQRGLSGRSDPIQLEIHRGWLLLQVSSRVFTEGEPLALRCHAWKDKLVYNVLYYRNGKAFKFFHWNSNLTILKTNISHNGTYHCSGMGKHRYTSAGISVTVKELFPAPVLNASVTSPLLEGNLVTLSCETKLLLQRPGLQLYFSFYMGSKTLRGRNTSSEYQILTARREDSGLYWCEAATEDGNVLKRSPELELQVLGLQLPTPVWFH

B1: IL6R-BP132/IL6R-L (antibody, human IgG1, kappa)
heavy: QVQLQESGPGLVKPSETLSLTCAVSGHSISHDHAWSWVRQPPGEGLEWIGFISYSGITNYNPSLQGRVTISRDNSKNTLYLQMNSLRAEDTAVYYCARSLARTTAMDYWGEGTLVTVSSASTKGPSVFPLAPSSKSTSGGTAALGCLVKDYFPEPVTVSWNSGALTSGVHTFPAVLQSSGLYSLSSVVTVPSSSLGTQTYICNVNHKPSNTKVDKKVEPKSCDKTHTCPPCPAPDLLGGDSVFLFPPKPKDTLMISRTPEVTCVVVDVSHEDPEVKFNWYVDGVEVHNAKTKPREEQYNSTYRVVSVLTVLHQDWLNGKEYKCKVSNAALPKPIEKTISKAKGQPREPQVYTLPPSRDELTKNQVSLTCLVKGFYPSDIAVEWESNGQPENNYKTTPPVLDSDGSFFLYSKLTVDKSRWQQGNVFSCSVMHEALHNHYTQESLSLSP
light: not shown
- relative binding activity [1]: 91 relative (IL6R-BF648/IL6R-L = 100)
- relative binding activity [2]: 150 relative (IL6R-BF648/IL6R-L = 100)

B2: IL6R-BP188/IL6R-L (antibody, human IgG1, kappa)
heavy: QVQLQESGPGLVKPSETLSLTCAVSGHSISHDHAWSWVRQPPGEGLEWIGFISYSGITNYNPSLQGRVTISRDNSKNTLYLQMNSLRAEDTAVYYCARSLARTTAMDYWGEGTLVTVSSASTKGPSVFPLAPSSKSTSGGTAALGCLVKDYFPEPVTVSWNSGALTSGVHTFPAVLQSSGLYSLSSVVTVPSSSLGTQTYICNVNHKPSNTKVDKKVEPKSCDKTHTCPPCPAPDLLGDDSVFLFPPKPKDTLMISRTPEVTCVVVDVSDEDGEVKFNWYVDGVEVHNAKTKPREEQYNSTYRVVSVLTVLHQDWLNGKEYKCKVSNKALPKPIEKTISKAKGQPREPQVYTLPPSRDELTKNQVSLTCLVKGFYPSDIAVEWESNGQPENNYKTTPPVLDSDGSFFLYSKLTVDKSRWQQGNVFSCSVMHEALHNHYTQESLSLSP
light: not shown
- relative binding activity [1]: 74 relative (IL6R-BF648/IL6R-L = 100)
- relative binding activity [2]: 179 relative (IL6R-BF648/IL6R-L = 100)

B3: IL6R-BP143/IL6R-L (antibody, human IgG1, kappa)
heavy: QVQLQESGPGLVKPSETLSLTCAVSGHSISHDHAWSWVRQPPGEGLEWIGFISYSGITNYNPSLQGRVTISRDNSKNTLYLQMNSLRAEDTAVYYCARSLARTTAMDYWGEGTLVTVSSASTKGPSVFPLAPSSKSTSGGTAALGCLVKDYFPEPVTVSWNSGALTSGVHTFPAVLQSSGLYSLSSVVTVPSSSLGTQTYICNVNHKPSNTKVDKKVEPKSCDKTHTCPPCPAPEYLGGDSVFLFPPKPKDTLMISRTPEVTCVVVDVSHEDPEVKFNWYVDGVEVHNAKTKPREEQYNSTYRVVSVLTVLHQDWLNGKEYKCKVSNAALPAPIEKTISKAKGQPREPQVYTLPPSRDELTKNQVSLTCLVKGFYPSDIAVEWESNGQPENNYKTTPPVLDSDGSFFLYSKLTVDKSRWQQGNVFSCSVMHEALHNHYTQESLSLSP
light: not shown
- relative binding activity [1]: 86 relative (IL6R-BF648/IL6R-L = 100)
- relative binding activity [2]: 133 relative (IL6R-BF648/IL6R-L = 100)

B4: IL6R-BP144/IL6R-L (antibody, human IgG1, kappa)
heavy: QVQLQESGPGLVKPSETLSLTCAVSGHSISHDHAWSWVRQPPGEGLEWIGFISYSGITNYNPSLQGRVTISRDNSKNTLYLQMNSLRAEDTAVYYCARSLARTTAMDYWGEGTLVTVSSASTKGPSVFPLAPSSKSTSGGTAALGCLVKDYFPEPVTVSWNSGALTSGVHTFPAVLQSSGLYSLSSVVTVPSSSLGTQTYICNVNHKPSNTKVDKKVEPKSCDKTHTCPPCPAPELLGDDSVFLFPPKPKDTLMISRTPEVTCVVVDVSHEDPEVKFNWYVDGVEVHNAKTKPREEQYNSTYRVVSVLTVLHQDWLNGKEYKCKVSNAALPAPIEKTISKAKGQPREPQVYTLPPSRDELTKNQVSLTCLVKGFYPSDIAVEWESNGQPENNYKTTPPVLDSDGSFFLYSKLTVDKSRWQQGNVFSCSVMHEALHNHYTQESLSLSP
light: not shown
- relative binding activity [1]: 64 relative (IL6R-BF648/IL6R-L = 100)
- relative binding activity [2]: 121 relative (IL6R-BF648/IL6R-L = 100)

B5: IL6R-BP176/IL6R-L (antibody, human IgG1, kappa)
heavy: QVQLQESGPGLVKPSETLSLTCAVSGHSISHDHAWSWVRQPPGEGLEWIGFISYSGITNYNPSLQGRVTISRDNSKNTLYLQMNSLRAEDTAVYYCARSLARTTAMDYWGEGTLVTVSSASTKGPSVFPLAPSSKSTSGGTAALGCLVKDYFPEPVTVSWNSGALTSGVHTFPAVLQSSGLYSLSSVVTVPSSSLGTQTYICNVNHKPSNTKVDKKVEPKSCDKTHTCPPCPAPDLLGGDSVFLFPPKPKDTLMISRTPEVTCVVVDVSHEDPEVKFNWYVDGVEVHNAKTKPREEQYNSTYRVVSVLTVLHQDWLNGKEYKCKVSNDALPKPIEKTISKAKGQPREPQVYTLPPSRDELTKNQVSLTCLVKGFYPSDIAVEWESNGQPENNYKTTPPVLDSDGSFFLYSKLTVDKSRWQQGNVFSCSVMHEALHNHYTQESLSLSP
light: not shown
- relative binding activity [1]: 102 relative (IL6R-BF648/IL6R-L = 100)
- relative binding activity [2]: 147 relative (IL6R-BF648/IL6R-L = 100)

B6: IL6R-BP182/IL6R-L (antibody, human IgG1, kappa)
heavy: QVQLQESGPGLVKPSETLSLTCAVSGHSISHDHAWSWVRQPPGEGLEWIGFISYSGITNYNPSLQGRVTISRDNSKNTLYLQMNSLRAEDTAVYYCARSLARTTAMDYWGEGTLVTVSSASTKGPSVFPLAPSSKSTSGGTAALGCLVKDYFPEPVTVSWNSGALTSGVHTFPAVLQSSGLYSLSSVVTVPSSSLGTQTYICNVNHKPSNTKVDKKVEPKSCDKTHTCPPCPAPDLLGGDSVFLFPPKPKDTLMISRTPEVTCVVVDVSHEDGEVKFNWYVDGVEVHNAKTKPREEQDNSTYRVVSVLTVLHQDWLNGKEYKCKVSNKALPKPIEKTISKAKGQPREPQVYTLPPSRDELTKNQVSLTCLVKGFYPSDIAVEWESNGQPENNYKTTPPVLDSDGSFFLYSKLTVDKSRWQQGNVFSCSVMHEALHNHYTQESLSLSP
light: not shown
- relative binding activity [1]: 95 relative (IL6R-BF648/IL6R-L = 100)
- relative binding activity [2]: 173 relative (IL6R-BF648/IL6R-L = 100)

B7: IL6R-BP133/IL6R-L (antibody, human IgG1, kappa)
heavy: QVQLQESGPGLVKPSETLSLTCAVSGHSISHDHAWSWVRQPPGEGLEWIGFISYSGITNYNPSLQGRVTISRDNSKNTLYLQMNSLRAEDTAVYYCARSLARTTAMDYWGEGTLVTVSSASTKGPSVFPLAPSSKSTSGGTAALGCLVKDYFPEPVTVSWNSGALTSGVHTFPAVLQSSGLYSLSSVVTVPSSSLGTQTYICNVNHKPSNTKVDKKVEPKSCDKTHTCPPCPAPDYLGGDSVFLFPPKPKDTLMISRTPEVTCVVVDVSHEDPEVKFNWYVDGVEVHNAKTKPREEQYNSTYRVVSVLTVLHQDWLNGKEYKCKVSNKALPKPIEKTISKAKGQPREPQVYTLPPSRDELTKNQVSLTCLVKGFYPSDIAVEWESNGQPENNYKTTPPVLDSDGSFFLYSKLTVDKSRWQQGNVFSCSVMHEALHNHYTQESLSLSP
light: not shown
- relative binding activity [1]: 41 relative (IL6R-BF648/IL6R-L = 100)
- relative binding activity [2]: 137 relative (IL6R-BF648/IL6R-L = 100)

B8: IL6R-BP184/IL6R-L (antibody, human IgG1, kappa)
heavy: QVQLQESGPGLVKPSETLSLTCAVSGHSISHDHAWSWVRQPPGEGLEWIGFISYSGITNYNPSLQGRVTISRDNSKNTLYLQMNSLRAEDTAVYYCARSLARTTAMDYWGEGTLVTVSSASTKGPSVFPLAPSSKSTSGGTAALGCLVKDYFPEPVTVSWNSGALTSGVHTFPAVLQSSGLYSLSSVVTVPSSSLGTQTYICNVNHKPSNTKVDKKVEPKSCDKTHTCPPCPAPDLLGGDSVFLFPPKPKDTLMISRTPEVTCVVVDVSHEDGEVKFNWYVDGVEVHNAKTKPREEQYNSTYRVVSVLTVLHQDWLNGKEYKCKVSNKALPKPIEKTISKAKGQPREPQVYTLPPSRDELTKNQVSLTCLVKGFYPSDIAVEWESNGQPENNYKTTPPVLDSDGSFFLYSKLTVDKSRWQQGNVFSCSVMHEALHNHYTQESLSLSP
light: not shown
- relative binding activity [1]: 96 relative (IL6R-BF648/IL6R-L = 100)
- relative binding activity [2]: 171 relative (IL6R-BF648/IL6R-L = 100)
